Reference: patent US20230265179A1 (TWIST BIOSCIENCE, published 2023)
Substitutions are numbered along the chain they refer to. Values belong to the binder of their own block, whether it stands above or below them.

Columns and labels:
IL1RL2 = molecular target: T1, IL1RL2 (UniProt Q9HB29 20-335, limits assumed); assay: SPR (Carterra LSA), antibody immobilised, 1:1 model
T1 construct: Soluble analyte of the SPR runs
T1 sequence (looked up): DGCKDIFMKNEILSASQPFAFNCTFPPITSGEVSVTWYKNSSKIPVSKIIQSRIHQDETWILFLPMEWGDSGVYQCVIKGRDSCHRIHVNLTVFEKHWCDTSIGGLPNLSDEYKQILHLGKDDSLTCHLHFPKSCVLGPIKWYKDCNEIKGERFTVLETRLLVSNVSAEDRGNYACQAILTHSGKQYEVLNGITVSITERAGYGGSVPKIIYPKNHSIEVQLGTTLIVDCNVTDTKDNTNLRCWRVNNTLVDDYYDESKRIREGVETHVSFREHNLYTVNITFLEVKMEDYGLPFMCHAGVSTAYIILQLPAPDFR
Experimental: (§1) SPR experiments were performed on a Carterra LSA SPR biosensor equipped with a HC30M chip at 25° C. in HBS-TE. Antibodies were diluted to 10 μg/mL and amine-coupled to the sensor chip by EDC/NHS activation, followed by ethanolamine HCl quenching. Increasing concentrations of analyte were flowed over the sensor chip in HBS-TE with 0.5 mg/mL BSA with 5-minute association and 15-minute dissociation. Following each injection cycle the surface was regenerated with 2× 30-second injections of IgG elution buffer (Thermo). Data were analyzed in Carterra's Kinetics Tool software with 1:1 binding model.

[1] = molecular target: T2, IL1RL2 over-expressed on Expi293 cells (UniProt Q9HB29 20-575, limits assumed); assay: flow cytometry, over-expressing Expi293 vs parent cells, 100 nM antibody;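 also: ratio is mean fluorescence intensity on over-expressing Expi293 cells divided by that measured on parental Expi293 cells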
T2 construct: whole, on cells; Target of the flow cytometry assay; MFI ratio is over-expressing cells over parent cells
T2 sequence (looked up): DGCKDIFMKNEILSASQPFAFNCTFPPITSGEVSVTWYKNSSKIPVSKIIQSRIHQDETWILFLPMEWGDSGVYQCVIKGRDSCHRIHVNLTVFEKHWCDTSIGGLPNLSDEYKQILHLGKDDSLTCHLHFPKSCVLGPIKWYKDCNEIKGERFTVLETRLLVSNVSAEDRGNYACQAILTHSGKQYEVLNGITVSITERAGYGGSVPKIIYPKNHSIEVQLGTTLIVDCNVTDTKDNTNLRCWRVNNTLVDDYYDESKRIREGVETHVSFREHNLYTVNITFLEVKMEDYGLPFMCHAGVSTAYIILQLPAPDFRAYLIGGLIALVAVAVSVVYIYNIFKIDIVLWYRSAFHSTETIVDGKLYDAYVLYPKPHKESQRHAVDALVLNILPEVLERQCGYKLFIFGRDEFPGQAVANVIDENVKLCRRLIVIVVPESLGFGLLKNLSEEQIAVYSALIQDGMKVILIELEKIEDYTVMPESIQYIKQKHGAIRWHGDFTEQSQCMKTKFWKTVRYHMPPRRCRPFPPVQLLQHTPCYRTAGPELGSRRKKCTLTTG
Experimental: (§2) All incubations and washes were in buffer containing PBS+1% BSA. MFI Ratio is defined by the mean fluorescence intensity (MFI) of the cytokine over-expressing Expi293 cell over the Expi293 parent cell. […] EC50 was calculated in GraphPad Prism.

[2] = molecular target: T2, IL1RL2 over-expressed on Expi293 cells; assay: flow cytometry titration on over-expressing Expi293 cells
Experimental: as §2

IL1RL1 [3] = molecular target: T3, IL1RL1 (UniProt Q01638 19-556, limits assumed); assay: flow cytometry, 100 nM IgG on IL1RL1 over-expressing Expi293 cells; MFI over that of Expi293 parent cells
T3 construct: whole, on cells; The flow cytometry used 'cytokine over-expressing Expi293 cells' against Expi293 parent cells
T3 sequence (looked up): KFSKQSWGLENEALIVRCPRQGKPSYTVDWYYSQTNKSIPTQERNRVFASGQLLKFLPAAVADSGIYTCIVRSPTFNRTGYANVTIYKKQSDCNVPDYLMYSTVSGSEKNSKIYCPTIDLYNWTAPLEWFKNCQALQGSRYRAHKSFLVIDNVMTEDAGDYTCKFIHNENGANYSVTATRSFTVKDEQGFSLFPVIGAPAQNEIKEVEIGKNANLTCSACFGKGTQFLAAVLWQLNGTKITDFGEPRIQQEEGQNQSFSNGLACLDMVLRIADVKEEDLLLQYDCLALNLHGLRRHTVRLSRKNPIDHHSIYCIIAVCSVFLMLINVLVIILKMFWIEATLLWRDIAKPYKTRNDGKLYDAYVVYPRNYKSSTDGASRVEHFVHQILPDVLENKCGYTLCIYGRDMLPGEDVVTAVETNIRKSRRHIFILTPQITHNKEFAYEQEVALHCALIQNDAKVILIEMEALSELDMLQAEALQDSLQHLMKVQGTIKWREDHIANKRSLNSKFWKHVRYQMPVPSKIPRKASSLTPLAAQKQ
Experimental: as §2

[4] = molecular target: T4, IL1RL1 over-expressed on Expi293 cells (UniProt Q01638 19-556, limits assumed); assay: flow cytometry, 100 nM antibody, over-expressing Expi293 / parent cells
T4 construct: whole, on cells; Target of the flow cytometry MFI ratio (over-expressing cells over parent cells); also called cytokine over-expressing Expi293 cells
T4 sequence (looked up): T3 sequence (looked up)
Experimental: as §2

IL1RL1 [5] = molecular target: T5, IL1RL1 (UniProt Q01638 19-328, limits assumed); assay: SPR (Carterra LSA), antibody amine-coupled
T5 construct: SPR analyte
T5 sequence (looked up): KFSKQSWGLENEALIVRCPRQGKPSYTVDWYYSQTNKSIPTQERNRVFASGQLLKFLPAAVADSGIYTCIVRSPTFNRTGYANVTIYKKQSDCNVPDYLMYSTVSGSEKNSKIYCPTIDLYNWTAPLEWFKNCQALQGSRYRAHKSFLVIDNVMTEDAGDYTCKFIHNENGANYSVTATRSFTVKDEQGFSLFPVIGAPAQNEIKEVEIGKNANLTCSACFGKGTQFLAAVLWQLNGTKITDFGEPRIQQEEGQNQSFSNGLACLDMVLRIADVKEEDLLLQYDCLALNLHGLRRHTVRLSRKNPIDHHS
Experimental: as §1

B3: IL1RL1-388 (antibody, V domains shown)
VH: EVQLLESGGGLVQPGGSLRLSCAASGFTFSRFAMSWVRQAPGKGLEWVSGISGSSGNTYYADSVKGRFTISRDNSKNTLYLQMNSLRAEDTAVYYCAREKRLPIRRRSGEPLGNYFDYWGQGTLVTVSS
VL: DIQMTQSPSSLSASVGDRVTITCRTSQSIRKYLNWYQQKPGKAPKLLIYASSRLQSGVPSRFSGSGSGTDFTLTISSLQPEDFATYYCQQNYRTPFTFGGGTKVEIK
- 100 nM FACS (MFI Ratio) (IL1RL1 [3]): 0.73 MFI ratio

B4: IL1RL1-51 (Fc fusion, not shown: a dimerising Fc or GST)
VHH: EVQLVESGGGLVQPGGSLRLSCAASGVTLDLYAMGWFRQAPGKEREWVSSIGIAGTPTFYADSVKGRFTISADNSKNTAYLQMNSLKPEDTAVYYCAANYGGSVLYNWGQGTLVTVSS
notes: VHH-Fc on IgG2 Fc
- 100 nM FACS (MFI Ratio) [4]: 1.28 MFI ratio
- binding result (IL1RL1 [5]): no binding

B5: IL1RL1-37 (Fc fusion, not shown: a dimerising Fc or GST)
VHH: EVQLVESGGGLVQPGGSLRLSCAASGGTFGSYAMGWFRQAPGKEREFVAAINWSGARTYYADSVKGRFTISADNSKNTAYLQMNSLKPEDTAVYYCAVSQPLNYYTYYDARRYDWGQGTLVTVSS
notes: VHH-Fc on IgG2 Fc
- 100 nM FACS (MFI Ratio) [4]: 1.25 MFI ratio
- binding result (IL1RL1 [5]): no binding

B8: IL1RL1-77 (Fc fusion, not shown: a dimerising Fc or GST)
VHH: EVQLVESGGGLVQPGGSLRLSCAASGRTFSSYVMGWFRQAPGKEREFVAVIIDSRTTKYADSVKGRFTISADNSKNTAYLQMNSLKPEDTAVYYCAAVGGATTVTASEWDWGQGTLVTVSS
notes: VHH-Fc on IgG2 Fc
- 100 nM FACS (MFI Ratio) [4]: 1.12 MFI ratio
- binding result (IL1RL1 [5]): no binding

B9: IL1RL1-385 (antibody, V domains shown)
VH: EVQLLESGGGLVQPGGSLRLSCAASGFTFNTFAMSWVRQAPGKGLELVSAISGSGGNTYYVDSVKGRFTISRDNSKNTLYLQMNSLRAEDTAVYYCARLGSGSSSSIDYWGQGTLVTVSS
VL: DIQMTQSPSSLSASVGDRVTITCRASQYISTFLNWYQQKPGKAPKLLIYAASRLQDGVPSRFSGSGSGTDFTLTISSLQPEDFATYYCQQSYGSSWTFGGGTKVEIK
- 100 nM FACS (MFI Ratio) (IL1RL1 [3]): 7.61 MFI ratio

B10: IL1RL2-35 (VHH)
VHH: EVQLVESGGGLVQPGGSLRLSCAASGRTFSTYDMGWFRQAPGKEREFVAAISWSGGSTNYADSVKGRFTISADNSKNTAYLQMNSLKPEDTAVYYCADVNGDWGQGTLVTVSS
notes: VHH-Fc based on IgG2 Fc
- Kd (IL1RL2): 4.74 nM
- koff (IL1RL2): 0.000593 s⁻¹
- kon (IL1RL2): 125000 M⁻¹ s⁻¹
- 100 nM FACS (MFI Ratio) [1]: 15.6
- EC50 [2]: 0.508 nM

B11: IL1RL2-20 (VHH)
VHH: B10 VHH with F29G, F47L, S54R, N59Y
notes: VHH-Fc based on IgG2 Fc
- Kd (IL1RL2): 3.28 nM
- koff (IL1RL2): 0.000363 s⁻¹
- kon (IL1RL2): 111000 M⁻¹ s⁻¹
- 100 nM FACS (MFI Ratio) [1]: 11.6
- EC50 [2]: 9.03 nM

B12: IL1RL2-27 (VHH)
VHH: B10 VHH with R27G, T28R, A50S, S52V, S54I, S57R, N59Y
notes: VHH-Fc based on IgG2 Fc
- Kd (IL1RL2): 1.32 nM
- koff (IL1RL2): 0.000143 s⁻¹
- kon (IL1RL2): 108000 M⁻¹ s⁻¹
- 100 nM FACS (MFI Ratio) [1]: 14
- EC50 [2]: 64.2 nM

B16: IL1RL1-387 (antibody, V domains shown)
VH: EVQLLESGGGLVQPGGSLRLSCAASGFTFNRYAMNWVRQAPGKGLEWVSTISASGGRTYYADSVKGRFTISRDNSKNTLYLQMNSLRAEDTAVYYCARGSLRLDTWGQGTLVTVSS
VL: DIQMTQSPSSLSASVGDRVTITCRASQNIASYLNWYQQKPGKAPKLLIYGASRLQSGVPSRFSGSGSGTDFTLTISSLQPEDFATYYCQQSSTPRTFGGGTKVEIK
- 100 nM FACS (MFI Ratio) (IL1RL1 [3]): 1.06 MFI ratio

More lines, now with the values ahead:

- Kd (IL1RL2): 12.1 nM
- koff (IL1RL2): 0.000485 s⁻¹
- kon (IL1RL2): 40200 M⁻¹ s⁻¹
- 100 nM FACS (MFI Ratio) [1]: 33.8
- EC50 [2]: 0.528 nM
B1: IL1RL2-12 (VHH)
VHH: EVQLVESGGGLVQPGGSLRLSCAASGPMSSSAVMGWFRQAPGKEREFVAVVTRWSGARTVYADSVKGRFTISADNSKNTAYLQMNSLKPEDTAVYYCAVSQPLNYYTYYDPRRYDWGQGTLVTVSS
notes: VHH-Fc based on IgG2 Fc

- 100 nM FACS (MFI Ratio) (IL1RL1 [3]): 0.85 MFI ratio
B2: IL1RL1-381 (antibody, V domains shown)
VH: EVQLLESGGGLVQPGGSLRLSCAASGFTSSNYAMTWVRQAPGKGLEWVSSIIGSGGGTYYADSVKGRFTISRDNSKNTLYLQMNSLRAEDTAVYYCARGIPRRKKGAGLFDYWGQGTLVTVSS
VL: B3 VL with T25A, Q27H, R30S, K31S, Y32H, A50G, S51A, S56R, R93N

- Kd (IL1RL2): 3.59 nM
- koff (IL1RL2): 0.000126 s⁻¹
- kon (IL1RL2): 35000 M⁻¹ s⁻¹
- 100 nM FACS (MFI Ratio) [1]: 15.4
- EC50 [2]: 3.02 nM
B6: IL1RL2-22 (VHH)
VHH: B5 VHH with G27R
notes: VHH-Fc based on IgG2 Fc

- 100 nM FACS (MFI Ratio) [4]: 1.06 MFI ratio
- binding result (IL1RL1 [5]): no binding
B7: IL1RL1-48 (Fc fusion, not shown: a dimerising Fc or GST)
VHH: B8 VHH with R27T, Y32D, F47L
notes: VHH-Fc on IgG2 Fc

- 100 nM FACS (MFI Ratio) (IL1RL1 [3]): 11.3 MFI ratio
B13: IL1RL1-375 (antibody, V domains shown)
VH: EVQLLESGGGLVQPGGSLRLSCAASGFAFSSYAMSWVRQAPGKGLELVSAISGSGDTSYYADSVKGRFTISRDNSKNTLYLQMNSLRAEDTAVYYCARVRRWSNFDYWGQGTLVTVSS
VL: DIQMTQSPSSLSASVGDRVTITCRASQSISRYLSWYQQKPGKAPKLLIYAGSKLQRGVPSRFSGSGSGTDFTLTISSLQPEDFATYYCQQTYSTPIAFGGGTKVEIK

- 100 nM FACS (MFI Ratio) (IL1RL1 [3]): 0.6 MFI ratio
B14: IL1RL1-380 (antibody, V domains shown)
VH: EVQLLESGGGLVQPGGPLRLSCAASGFSFSKFAMSWVRQAPGKGLEWVSGISGSGGNTYYADSVKGRFTISRDNSKNTLYLQMNSLRAEDTAVYYCVKGSRGSYRSSTLGPFKHWGQGTLVTVSS
VL: B9 VL with A25T, Y28S, F32Y, D56N, G93S, S94V, S95P, W96G

- 100 nM FACS (MFI Ratio) (IL1RL1 [3]): 1.21 MFI ratio
B15: IL1RL1-377 (antibody, V domains shown)
VH: EVQLLESGGGLVRPGGSLRLSCAASGFTFRNFAMSWVRQAPGKGLEWVSSISGSGDTTYYADSVKGRFTISRDNSKNTLYLQMNSLRAEDTAVYYCARHKRGRVAVAFPMDVWGQGTLVTVSS
VL: B16 VL with A30G, S31R, R53T, S56R, S92Y, T93S, P94A, R95P

- 100 nM FACS (MFI Ratio) [4]: 0.55 MFI ratio
- binding result (IL1RL1 [5]): no binding
B17: IL1RL1-41 (Fc fusion, not shown: a dimerising Fc or GST)
VHH: EVQLVESGGGLVQPGGSLRLSCAASGGTLSSYIMGWFRQAPGKEREGVAAIDSDGSTSYADSVKGRFTISADNSKNTAYLQMNSLKPEDTAVYYCAARPVRVDDISLPVGFDWGQGTLVTVSS
notes: VHH-Fc on IgG2 Fc
